Measurements reported in patent US5766896A, “Method of producing iodine by use of a copper containing oxidase enzyme” (Novo Nordisk Biotech Inc., priority 1994, dated 1998).

Key:
[1] = substrate: CCn1c(=NN=c2sc3cc(S(=O)(=O)O)ccc3n2CC)sc2cc(S(=O)(=O)O)ccc21; test: purified protein, by the assay type
[2] = substrate: COc1cc(C=NN=Cc2cc(OC)c(O)c(OC)c2)cc(OC)c1O; test: r-MtL syringaldazine oxidation; assay type: biochemical, Myceliophthora thermophila; conditions: other: optimal pH (7); 30.0 °C
Experimental: The extinction coefficient of 36 mM^-1 cm^-1 is used to calculate the rate. Spectroscopic assays are conducted on either a spectrophotometer (Shimadzu UV160) or a microplate reader (Molecular Devices).

[3] = other: optimal pH of 4.1, pH 4.1, 30.0 °C
[4] = other: from dependence of I^- oxidation rates on ABTS concentration, 20.0 °C

B1: ceruloplasmin (porcine plasma) (Sus scrofa) (protein)
chain: KDKHYYIGIVETTWDYASDRGEKKLISVDKEQSNIYLQNGPNRIGRLYKKAIYLQYTDETFRTIIEKPVWLGFLGPIIKAETGDRVYVHFKNFASRPYTFHAHGMTYYKEHEGAIYPDNTTDFQKADDKVHPGEQYTYILHANPEQGPGKEDSNCVTRIYHSHIDAPKDIASGLIGPLIHCRKDSLDKEKEKNIDQEFVVMFSVVDENLSWYLEDNIKTYCSEPEKVEPDNEDFKESNRMYSVNGYSFGSLPGLSMCAEDRVKWYLFGMGNEIDVHAAFFHGQVLTNKNYRIDTINLFPATLFDAFMVAQNPGEWMLSCQNLNHLKAGLQAFFRVQDCKKTSSEDAIHGKHVRHYYIAAEEIIWNYAPSGIDTFTKENLTAPGSASEVFFTRGSTRIGGSYKKLVYREYKDASFTNRKERGPEEEHLGILGPVIWAEVGDTIRVTFRNKGAYPLSIEPTGVRVSKSQEGTYYASHYISSSENVPPSASHVAPKETFTYEWTVPKEVGPTYKDPVCLTKMYYSAVDPTKDIFTGLIGPMKICKKGSLLANGRLKDVDKEFYLFPTVFDENESLLLDDNIQMFTTEPNKVDKENEDFQESNKMHSMNGFMYGNQPGLNMCQGDSVVWYLFSAGNEVDVHGIYFSGNTYLSRGERRDTANLFPQTSLRLFMQPDTAGTFDVECLTTDHYTGGMKQKYTVNQCKQLNENSYLYLGERTYYIAAVEVEWDYSPSREWEKELHHSQERNVSNAFLDKGEFYIGSKYKKVVYRQFTDSTFQVPVQRKAKEEHLGILGPQLHADVGDKVNIVFKNTATRPYSIHAHGVKTESPTVIPTVPGETRTYVWKIPERSGAGIDDSPCIPWVYYSTVDQVKDLYSGLIGPLIVCRKPYLKVFNPIKNLEFSLLFLVFDENESWYLDDNIKTYSDHPEKVDKANDEFIESNKMHAINGRMFGNLQGLTMHVGDEVNWYLMGMGNEIDLHTVHFHGHSFQYQHRGIYTSDVFDIFPGTYQTLEMFPKTSGTWLLHCHVTDHIHAGMETTYTVLPNEETKSG
Km ([1]; other: pH 4.1, pH 4.1, 30.0 °C): 110 ± 40 µM | kcat ([1]; other: pH 4.1, pH 4.1, 30.0 °C): 9.3±1.3 turnover per minute

B2: bilirubin oxidase (Myrothecium verrucaria) (Albifimbria verrucaria) (protein)
chain: VAQISPQYPMFTVPLPIPPVKQPRLTVTNPVNGQEIWYYEVEIKPFTHQVYPDLGSADLVGYDGMSPGPTFQVPRGVETVVRFINNAEAPNSVHLHGSFSRAAFDGWAEDITEPGSFKDYYYPNRQSARTLWYHDHAMHITAENAYRGQAGLYMLTDPAEDALNLPSGYGEFDIPMILTSKQYTANGNLVTTNGELNSFWGDVIHVNGQPWPFKNVEPRKYRFRFLDAAVSRSFGLYFADTDAIDTRLPFKVIASDSGLLEHPADTSLLYISMAERYEVVFDFSDYAGKTIELRNLGGSIGGIGTDTDYDNTDKVMRFVVADDTTQPDTSVVPANLRDVPFPSPTTNTPRQFRFGRTGPTWTINGVAFADVQNRLLANVPVGTVERWELINAGNGWTHPIHIHLVDFKVISRTSGNNARTVMPYESGLKDVVWLGRRETVVVEAHYAPFPGVYMFHCHNLIHEDHDMMAAFNATVLPDYGYNATVFVDPMEELWQARPYELGEFQAQSGQFSVQAVTERIQTMAEYRPYAAADE
Km [1, 3]: 120 ± 10 µM | kcat [1, 3]: 1310±40 turnover per minute

B3: recombinant Myceliophthora thermophila laccase (r-MtL) (Thermothelomyces thermophilus ATCC 42464) (protein)
chain: QQSCNTPSNRACWTDGYDINTDYEVDSPDTGVVRPYTLTLTEVDNWTGPDGVVKEKVMLVNRPTIFADWGDTIQVTVINNLETNGTSIHWHGLHQKGTNLHDGANGITECPIPPKGGRKVYRFKAQQYGTSWYHSHFSAQYGNGVVGAIQINGPASLPYDTDLGVFPISDYYYSSADELVELTKNSGAPFSDNVLFNGTAKHPETGEGEYANVTLTPGRRHRLRLINTSVENHFQVSLVNHTMTIIAADMVPVNAMTVDSLFLGVGQRYDVVIEASRTPGNYWFNVTFGGGLLCGGSRNPYPAAIFHYAGAPGGPPTDEGKAPVDHNCLDLPNLKPVVARDVPLSGFAKRPDNTLDVTLDTTGTPLFVWKVNGSAINIDWGRPVVDYVLTQNTSFPPGYNIVEVNGADQWSYWLIENDPGAPFTLPHPMHLHGHDFYVLGRSPDESPASNERHVFDPARDAGLLSGANPVRRDVTMLPAFGWVVLAFRADNPGAWLFHCHIAWHVSGGLGVVYLERADDLRGAVSDADADDLDRLCADWRHYWPTNPYPKSDSGL
Km [1, 4]: 6.4 ± 0.8 µM | kcat [1, 4]: 860±40 turnover per minute | Km ([1]; other: pH 4.1, pH 4.1): 5.6 ± 0.5 µM | kcat ([1]; other: pH 4.1, pH 4.1): 1460±31 turnover per minute | Km [2]: 10 µM | kcat [2]: 400 turnover per minute
